In patent US20260183437A1, “VHH ANTIBODY CONJUGATES WITH HETEROARYL CHELATORS” (ABDERA THERAPEUTICS INC., priority 2022, published 2026):

Key:
[1] = Thermal stability by differential scanning fluorimetry (DSF); type: physicochemical
Procedure: Denaturing temperatures (Tm) of VHH-Fes were determined from differential scanning fluorimetry (DSF) using Protein Thermo Shift Dye Kit™ (ThermoFisher, Cat #: 4461146). Briefly, A total of 1 μg of antibody was used in each reaction. Melting curves of the antibodies were generated using an Applied Biosystems QuantStudio 7 Flex Real-Time PCR System with the recommended settings stated in the kit manual. The Tm's of the antibodies in Table 1 were then determined by using the ThermoFisher Protein Thermal Shift software (v.1.3). Tm1 of the VHH-Fcs was determined by DSF.

[2] = Pharmacokinetics of VHH-Fc variants in Tg32 (humanized FcRn) mice; type: in vivo; settings: IV 3 mg/kg, HER2 VHH-Fc study (Table 6)
Procedure: Twenty eight (28) 8 week old male B6. Cg-Fcgrt^tm1Der Tg(FCGRT)32Dcr/DcrJ (Tg32 hom, JAX stock #014565) mice were distributed into 7 groups with 4 mice per group as outlined in the table. […] (See, e.g., Avery L B et al. “Utility of a human FcRn transgenic mouse model in drug discovery for early assessment and prediction of human pharmacokinetics of monoclonal antibodies.” MAbs. 2016 August-September; 8(6):1064-78). On Day 0, body weights were measured and test articles were IV administered to all mice at 3 mg/kg and 5 mL/kg. 25 μL blood samples were collected from each mouse at time intervals. The blood samples were collected into 1 μL K3EDTA, processed to plasma, diluted 1/10 in 50% glycerol in PBS, transferred into specialized 96 well storage plates, and stored at −20° C. All plasma samples were assessed via a hIgG ELISA chosen for its high sensitivity for all seven test articles.

[3] = molecular target: T1, Human HER2-His (Homo sapiens, UniProt P04626); test: Affinity to target protein by biolayer interferometry (Octet Red96e); type: binding; settings: analyte Human HER2-His
T1 construct: His; purchased Sinobiologics 10004-H08H
Procedure: Antibody affinity was assessed using Octet Red96e (ForteBio). The association rate constant (ka), dissociation rate constant (kd) and affinity constant (KD) were measured by biolayer interferometry with anti-hIgG Fc (AHC) capture biosensors (Fortebio cat #18-5063). Each cycle was performed with orbital shake speed of 1,000 rpm. Antigen was titrated 1:2 from a suitable starting concentration in kinetics buffer (Fortebio, Cat #18-1105). A set of AHC biosensors was dipped in kinetics buffer for baseline step of 60s. Anti-Target VHH-Fc (5 μg/mL, in kinetics buffer) was loaded onto the biosensors for 240 s followed by a second baseline step of 30 s. The IgG captured sensors were dipped into buffer for single reference subtraction to compensate natural dissociation of capture IgG. Each biosensor was then dipped into corresponding concentration of target protein (human, murine or cynomolgus monomeric protein) for 600 s, followed by 1800 s of dissociation time in kinetics buffer, or conditions as optimized. A new set of AHC biosensors was used for every VHH-Fc. The data was analyzed by global fit 1:1 model for the association and dissociation step, (Octet software version v11.0).

[4] = molecular target: T2, human insulin (Homo sapiens, UniProt P01308); test: Polyreactivity ELISA; type: binding; settings: 10 μg/mL VHH-Fc; signal normalized to non-coated well
T2 construct: 5 μg/mL of human insulin (SigmaAlrich, Cat #: I9278); purchased SigmaAlrich I9278
Procedure: Polyreactivity of VHH-Fcs against negatively charged biomolecules was determined by ELISA (As in Avery et al., “Establishing in vitro in vivo correlations to screen monoclonal antibodies for physicochemical properties related to favorable human pharmacokinetics.” MAbs. 2018 February/March; 10(2):244-255). Briefly, ELISA plate was coated with 5 μg/mL of human insulin (SigmaAlrich, Cat #: I9278) and 10 μg/mL of double stranded DNA (SigmaAlrich, Cat #: D1626-250MG) overnight. The plate was blocked with ELISA buffer (PBS, 1 mM EDTA, 0.05% Tween-20, pH 7.4). 10 μg/mL of test VHH-Fcs was loaded onto the plates in quadruplicates and incubated for 2 hours. Goat anti-human Fc(0.01 ug/ml) conjugated with HRP was then added and the plate incubated for 1 hour. The signal was developed with TMB and A450 absorbance was measured with Synergy Neo2 plate reader. The signal was normalized with the signal of non-coated well for each antibody tested.

[5] = molecular target: T3, hFcRn (Homo sapiens, UniProt P55899); test: FcRn affinity by biolayer interferometry (Octet RED96e), pH 6.0; settings: pH 6.0, 2:1 binding model
T3 construct: purchased Sino Biological CT071-H27H-B
Procedure: FcRn affinity of VHH-Fc can generally be used to predict the half-life of antibody serum clearance. (See, e.g., Datta-Mannan A et al. “FcRn affinity-pharmacokinetic relationship of five human IgG4 antibodies engineered for improved in vitro FcRn binding properties in cynomolgus monkeys.” Drug Metab Dispos. 2012 August; 40(8):1545-55). Briefly, 10 nM of biotinylated hFcRn (Sino Biological, Cat #: CT071-H27H-B) was captured with the SA biosensor using Octet RED96e (Fortebio). The hFcRN coated biosensor was dipped into the sample solutions in sodium phosphate buffer (100 mM Na2HPO4, 150 mM NaCl w/ 0.05% Tween-20, pH 6.0) with serial concentrations of tested antibodies and the association measured. The dissociation was measured by dipping the biosensors into sodium phosphate buffer without antibody. The KD values were determined using Octet Data Analysis HT 11.0 software. 2:1 (Heterogeneous Ligand) binding model was used in analysis. […] Changes in FcRn affinity were consistent across targets. Constructs with Fc Effector mutation only have no impact on FcRn affinity.

T2 sequence (P01308 25-54 limits assumed): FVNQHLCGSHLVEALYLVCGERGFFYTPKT
T2 sequence (P01308 90-110 limits assumed): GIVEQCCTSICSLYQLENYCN
T3 sequence (P55899 24-297 limits assumed): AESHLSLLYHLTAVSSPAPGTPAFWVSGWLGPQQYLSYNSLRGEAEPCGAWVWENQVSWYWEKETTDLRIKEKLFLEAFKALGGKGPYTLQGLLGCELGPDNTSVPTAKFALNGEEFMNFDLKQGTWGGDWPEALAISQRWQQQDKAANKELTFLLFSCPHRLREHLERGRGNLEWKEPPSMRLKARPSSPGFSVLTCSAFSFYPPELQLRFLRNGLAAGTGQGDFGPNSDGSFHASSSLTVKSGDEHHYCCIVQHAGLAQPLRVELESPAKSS
T3 sequence (P61769 21-119 partner): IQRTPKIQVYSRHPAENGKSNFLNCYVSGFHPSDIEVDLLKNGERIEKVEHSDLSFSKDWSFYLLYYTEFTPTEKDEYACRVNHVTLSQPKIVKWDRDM

**Q.** Which results are given for “H101: anti-HER2 VHH-Fc (2RS15d VHH, human IgG1 Fc); FcRn wt, Fc effector wt [Compound H101]”?
**A.** Tm1 (thermostability) by DSF [1]: 67.5±0.1 Celsius; Clearance [2]: 28.7 mL/day; Cmax [2]: 57.0 µg/mL; Terminal Half-Life [2]: 166 h; Kd [3]: 3.79 nM; Polyreactivity Assay Score, Insulin [4]: 1.176; Kd [5]: 3.7 nM
